The supplement of paper PMC10567573

B1: ADD1 (parent)
chain: LRHSFQKQQREKTRWLNSGRGDEA
B2: KRT18 (parent)
chain: RAQYDELARKNREELDKYWSQQIE

Variants of: B1
Assay: protein stability index of a GFP-peptide fusion (GPS, HEK-293T) (PSI 1-6); higher = more stable
Conditions: c terminus: a fixed tail appended
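Also: lentivirally expressed fusions sorted by FACS into six bins by GFP to DsRed ratio, PSI derived from sequencing read proportions per bin multiplied by bin number.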

In order of falling protein stability index:
1. R2D  5.03
2. W15H  5.01
3. R20D  4.88
4. W15Q  4.84
5. W15G  4.72
6. L16E  4.72
7. F5E  4.71
8. L16D  4.69
9. W15S  4.68
10. R10E  4.67
11. W15T  4.65
12. W15R  4.62
13. R10S  4.58
14. K7G  4.57
15. W15N  4.54
16. H3D  4.53
17. A24E  4.52
18. E11D  4.47
19. R10Q  4.44
20. F5A  4.44
21. R2E  4.42
22. L1R  4.42
23. W15D  4.42
24. F5P  4.4
25. F5N  4.37
26. F5D  4.37
27. L1S  4.35
28. L1E  4.34
29. R2P  4.33
30. K7E  4.33
31. R2N  4.3
32. R20E  4.28
33. S18E  4.28
34. T13N  4.27
35. T13E  4.27
36. F5H  4.24
37. L16S  4.22
38. L16K  4.22
39. L1G  4.21
40. K7N  4.21
41. F5Q  4.19
42. R2A  4.17
43. W15Y  4.17
44. R10A  4.17
45. F5V  4.17
46. F5G  4.16
47. Q9G  4.15
48. Q6E  4.14
49. R10H  4.13
50. A24K  4.12
51. Q9A  4.12
52. L1N  4.11
53. F5T  4.11
54. K12A  4.1
55. W15K  4.08
56. T13G  4.07
57. L16C  4.06
58. Q9D  4.06
59. R2T  4.05
60. R20H  4.05
61. R2H  4.03
62. N17V  4.03
63. A24Q  4.03
64. A24N  4.03
65. R20K  4.03
66. R14S  4.03
67. Q8A  4
68. G21E  3.99
69. Q6K  3.99
70. E23A  3.98
71. R2G  3.97
72. W15V  3.97
73. K12D  3.96
74. N17E  3.95
75. A24D  3.95
76. R20Q  3.95
77. R14V  3.95
78. R2Q  3.94
79. D22H  3.94
80. L16N  3.94
81. H3T  3.94
82. Q8T  3.93
83. A24R  3.93
84. L1I  3.92
85. R10F  3.92
86. Q9K  3.92
87. S18G  3.92
88. T13K  3.91
89. E11P  3.91
90. T13H  3.9
91. A24S  3.9
92. D22E  3.89
93. K7L  3.89
94. N17S  3.88
95. K12R  3.88
96. L16M  3.88
97. R20V  3.88
98. S4D  3.88
99. Q8D  3.87
100. K7D  3.87
101. R14P  3.86
102. R2M  3.85
103. S18I  3.85
104. G21K  3.84
105. R20A  3.84
106. N17Q  3.83
107. T13R  3.83
108. Q8E  3.83
109. R10T  3.83
110. Q9T  3.83
111. E23S  3.83
112. N17G  3.82
113. R10L  3.82
114. G19A  3.82
115. N17A  3.81
116. G19S  3.81
117. L1F  3.8
118. K12C  3.79
119. S18Y  3.79
120. H3P  3.77
121. L1Y  3.75
122. R20T  3.75
123. Q9R  3.75
124. E23P  3.75
125. H3K  3.75
126. D22Q  3.74
127. F5I  3.74
128. W15C  3.73
129. K12N  3.73
130. R10G  3.72
131. S4Q  3.72
132. R2K  3.71
133. G21P  3.71
134. L1D  3.7
135. F5K  3.7
136. Q6T  3.7
137. G19Q  3.7
138. K7T  3.67
139. H3Q  3.67
140. L16A  3.66
141. L1M  3.65
142. N17K  3.65
143. R10I  3.65
144. E11R  3.65
145. G21L  3.64
146. R10Y  3.64
147. Q9S  3.64
148. G21S  3.63
149. K7F  3.63
150. D22G  3.62
151. R20N  3.62
152. R2S  3.6
153. S4A  3.59
154. K12H  3.58
155. R10C  3.58
156. A24P  3.58
157. R14A  3.58
158. K12T  3.57
159. L16T  3.57
160. A24V  3.56
161. A24M  3.56
162. Q6V  3.56
163. G19H  3.56
164. S18Q  3.55
165. T13L  3.54
166. Q6L  3.54
167. H3L  3.54
168. T13A  3.53
169. S18V  3.53
170. T13P  3.52
171. Q8G  3.52
172. R14F  3.52
173. R14D  3.52
174. A24C  3.51
175. K7Y  3.51
176. S18W  3.51
177. S18T  3.51
178. Q6M  3.49
179. Q8V  3.48
180. K12Y  3.48
181. E23T  3.48
182. H3Y  3.48
183. G21R  3.47
184. D22M  3.47
185. R20Y  3.47
186. E23V  3.47
187. K12I  3.46
188. R10M  3.44
189. Q9P  3.44
190. F5R  3.43
191. K12M  3.42
192. L16Y  3.42
193. Q8H  3.41
194. G21M  3.4
195. S18L  3.39
196. K7V  3.38
197. T13S  3.36
198. S18M  3.36
199. Q8K  3.35
200. Q9V  3.35
201. G19L  3.35
202. Q8M  3.32
203. A24H  3.31
204. S4P  3.3
205. T13F  3.29
206. D22T  3.29
207. H3M  3.29
208. L16F  3.28
209. K12V  3.27
210. E11G  3.27
211. R20W  3.26
212. T13M  3.25
213. D22V  3.25
214. R14W  3.25
215. Q6I  3.25
216. E23I  3.24
217. Q9L  3.23
218. K7M  3.22
219. G21C  3.21
220. S4R  3.21
221. Q6F  3.21
222. T13Q  3.2
223. S18H  3.19
224. D22C  3.18
225. A24Y  3.18
226. E11K  3.17
227. H3F  3.14
228. E11S  3.13
229. E11T  3.11
230. S18D  3.11
231. Q6G  3.11
232. A24L  3.08
233. K7W  3.08
234. N17M  3.05
235. S4W  3.04
236. G21W  3.03
237. G21Y  3.01
238. K7R  3.01
239. S4C  3.01
240. S4K  3
241. G19Y  3
242. R2F  2.99
243. Q9W  2.94
244. T13Y  2.93
245. L1W  2.92
246. S4F  2.92
247. E11V  2.88
248. E11Q  2.87
249. S18F  2.87
250. Q6Y  2.85
251. S4M  2.84
252. D22Y  2.78
253. E23W  2.77
254. Q8F  2.73
255. E23K  2.73
256. G19I  2.73
257. K12W  2.72
258. Q8Y  2.71
259. Q9F  2.71
260. E23Y  2.66
261. S18R  2.63
262. Q8C  2.62
263. N17W  2.59
264. E11N  2.57
265. E11W  2.56
266. N17H  2.54
267. N17R  2.49
268. S4Y  2.45
269. E23L  2.38
270. E11Y  2.36
271. E11L  2.28
272. E23F  2.28
273. H3W  2.28
274. Q6C  2.27
275. S4L  2.26
276. E11F  2.24
277. E11I  2.21
278. F5C  2.21
279. E11C  1.93
280. Q9C  1.73
281. A24W  1.65

Variants of: B2
Assay: as above
Conditions: c terminus: a fixed tail appended

In order of falling protein stability index:
1. Q3N  4.45
2. R1V  3.71
3. Q3D  3.54
4. R1A  3.38
5. A2E  3.34
6. Q3R  3.27
7. A2S  3.25
8. A2R  3.24
9. A2H  3.23
10. Q3G  3.21
11. Q3E  3.19
12. Q3K  3.19
13. A2D  3.18
14. A2W  3.13
15. A2P  3.13
16. R1G  3.12
17. A2V  3.11
18. R1P  3.08
19. A2Q  3.07
20. R1Q  3.07
21. R1S  3.06
22. R1E  3.06
23. R1T  3.02
24. R1N  2.99
25. R1H  2.97
26. R1M  2.97
27. Q3P  2.94
28. R1D  2.87
29. R1I  2.79
30. R1L  2.79
31. A2F  2.73
32. A2Y  2.72
33. Q3A  2.68
34. A2K  2.65
35. A2M  2.65
36. Q3L  2.55
37. Q3H  2.54
38. Q3M  2.52
39. A2T  2.52
40. A2N  2.52
41. Q3C  2.51
42. A2L  2.51
43. A2I  2.5
44. A2C  2.48
45. R1F  2.47
46. Q3I  2.44
47. Q3F  2.38
48. A2G  2.33
49. R1Y  2.29
50. R1K  2.29
51. Q3S  2.21
52. R1C  2.19
53. R1W  2.12
